The text below walks through data of patent US12492236B2, “Fusion proteins for the treatment of cardiometabolic diseases” (Shattuck Labs, Inc., priority 2022, dated 2025).

Assay [1] has as its target T1, recombinant human Activin A (Homo sapiens, UniProt P08476).
T1 sequence (P08476 311-426): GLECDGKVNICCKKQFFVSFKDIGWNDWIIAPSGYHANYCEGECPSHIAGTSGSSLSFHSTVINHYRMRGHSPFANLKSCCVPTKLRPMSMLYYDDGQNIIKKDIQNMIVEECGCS
The experiment in a line: MSD platform-based binding assay on plate-bound Activin A. The conditions noted are these: MSD signal, serial dilutions. As to the method:
The binding by a recombinant human ACVR2B-Fc fusion protein to activin A (also known as Inhibin beta A) was characterized using a Meso Scale Discovery (MSD) platform-based assay. Briefly, Activin A was coated on a plate and 8× serial dilutions of the purified recombinant human ACVR2B-Fc fusion protein were also added in a series of wells. The protein captured by the plate-bound Activin A was detected using an anti-human Fc antibody and a SULFO-TAG conjugated secondary antibody.
(§1) The binding to Activin A by the GLP-1-Fc-ACVR2B fusion protein produced using the mmRNA constructs was investigated using a Meso Scale Discovery (MSD) platform-based assay. Briefly, HEK293T cells were transfected with each mRNA construct using lipofectamine 2000, and culture supernatants were collected after 48 hours. Activin A was coated on a plate, and 3× serial dilutions of the culture supernatants were added to the plate for capture by the plate-bound Activin A. The protein captured by the plate-bound Activin A was detected using an anti-human Fc antibody and a SULFO-TAG conjugated secondary antibody. The MSD signals generated by the culture supernatants of HEK293T cells transfected with different mmRNA constructs were plotted as a line graph.

The target of a further assay is T2, recombinant human GDF-8 (Homo sapiens, UniProt O14793).
T2 sequence (O14793 267-375): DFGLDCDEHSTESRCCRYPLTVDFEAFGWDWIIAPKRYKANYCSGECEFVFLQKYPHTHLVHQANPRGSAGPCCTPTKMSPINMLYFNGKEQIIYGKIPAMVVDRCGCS
The experiment in a line: MSD platform-based binding assay on plate-bound GDF-8. The conditions noted are these: MSD signal, serial dilutions. As to the method:
The binding by a recombinant human ACVR2B-Fc fusion protein to GDF-8 (also known as myostatin) was characterized using a Meso Scale Discovery (MSD) platform-based assay. Briefly, GDF-8 was coated on a plate and 8× serial dilutions of the purified recombinant human ACVR2B-Fc fusion protein were also added in a series of wells. The protein captured by the plate-bound GDF-8 was detected using an anti-human Fc antibody and a SULFO-TAG conjugated secondary antibody.
as §1, with “GDF-8” for “Activin A”, “GDF-8.” for “Activin A.”

For “GLP-1-Fc-ACVR2B: GLP-1 fused to ACVR2B extracellular domain via IgG1 hinge-CH2-CH3 Fc domain; SEQ ID NO: 154”, the “binding to Activin A” value in assay [1] is “binds to the human Activin A”. In the assay with recombinant human GDF-8, the “binding to GDF-8” value is “binds to the human GDF-8”.
